Laboratory results as given in US20030161832A1 (CORNELL RESEARCH FOUNDATION, published 2003).
Blank lines part the entries; values can stand above or below the binder they belong to.

Experiments:
[1] = biological target: T1, prostate specific membrane antigen (PSMA), human (human, UniProt Q04609 1-750); test: stated, method not described
T1 construct: whole, on cells; The target was native PSMA on LNCaP cells, in LNCaP membrane preparations (ELISA) or in frozen tissue sections (immunohistochemistry); also called human PSMA

[2] = biological target: T1, prostate specific membrane antigen …; test: ELISA on LNCaP membrane preparation
[3] = biological target: T1, prostate specific membrane antigen …; test: ELISA on LNCaP membrane preparation, purified antibody

T1 sequence (Q04609 whole entry): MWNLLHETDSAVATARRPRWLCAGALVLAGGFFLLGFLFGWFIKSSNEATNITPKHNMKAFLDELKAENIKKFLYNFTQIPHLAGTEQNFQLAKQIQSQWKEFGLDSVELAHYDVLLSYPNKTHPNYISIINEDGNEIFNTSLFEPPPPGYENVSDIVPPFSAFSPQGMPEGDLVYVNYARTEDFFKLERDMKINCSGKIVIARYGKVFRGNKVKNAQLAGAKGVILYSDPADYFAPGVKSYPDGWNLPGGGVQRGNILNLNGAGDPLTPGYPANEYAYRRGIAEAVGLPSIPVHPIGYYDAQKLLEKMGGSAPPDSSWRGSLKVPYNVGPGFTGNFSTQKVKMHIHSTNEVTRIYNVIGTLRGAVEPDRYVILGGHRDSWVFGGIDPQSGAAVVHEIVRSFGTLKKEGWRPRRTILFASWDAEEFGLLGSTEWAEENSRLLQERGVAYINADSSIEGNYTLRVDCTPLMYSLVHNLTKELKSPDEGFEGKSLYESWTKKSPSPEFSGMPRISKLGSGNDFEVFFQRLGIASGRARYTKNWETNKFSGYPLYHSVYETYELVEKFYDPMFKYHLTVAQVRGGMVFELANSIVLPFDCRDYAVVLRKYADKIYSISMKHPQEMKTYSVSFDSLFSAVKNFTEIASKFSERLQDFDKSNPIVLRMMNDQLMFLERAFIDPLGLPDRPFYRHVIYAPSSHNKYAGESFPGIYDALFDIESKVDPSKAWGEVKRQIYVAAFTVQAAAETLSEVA

B2: murine monoclonal antibody J533 (hybridoma ATCC HB-12127) (antibody, mouse IgG1, V domains shown)
VH: EVQLQQSGPELVKPGASVKMSCKASGYTFTGYVMHWVKQKPGQVLEWIGYINPYNDVTRYNGKFKGKATLTSDKYSSTAYMELSGLTSEDSAVYYCARGENWYYFDSWGRGATLTVSS
VL: DIVLTQSPASLAVSLGQRATISCRASESIDSYDNTFMHWYQQKPGQPPNLLIFRASILESGIPARFSGSGSGTDFTLTIYPVEADDVATYYCHQSIEDPYTFGGGTKLEIK
notes: also called murine J533
binding result [1]: binds

B3: deimmunized J415 antibody composed of heavy chain version 4 (J415DIVH4) and light chain version 5 (J415DIVK5) (antibody, V domains shown)
VH: EVKLEESGGGLVQPGGSMKISCVASGFTFSNYWMNWVRQSPEKGLEWVAEIRSQSNNFATHYAESVKGRVIISRDDSKSSVYLQMNSLRAEDTAVYYCTRRWNNFWGQGTTVTVSS
VL: NIVMTQFPKSMSASAGERMTLTCKASENVGTYVSWYQQKPTQSPKMLIYGASNRFTGVPDRFSGSGSGTDFILTISSVQAEDLVDYYCGQSYTFPYTFGGGTKLEMK
notes: also called DIVH4/DIVK5; deJ415
binding result [2]: binds

B4: deimmunized J415 antibody composed of heavy chain version 2 (J415DIVH2) and light chain version 5 (J415DIVK5) (antibody, V domains shown)
VH: EVKLEESGGGLVQPGGSMKISCVASGFTFSNYWMNWVRQTPEKGLEWVALIRSQSNNFATHYAESVKGRVIISRDDSKSSVYLQMNSLRAEDTAVYYCTRRWNNFWGQGTTVTVSS
VL: NIVMTQFPKSMSASAGERMTLTCKASENVGTYVSWYQQKPTQSPKMLIYGASNRFTGVPDRFSGSGSGTDFILTISSVQAEDLVDYYCGQSYTFPYTFGGGTKLEMK
notes: also called DIVK5 combined with heavy chain version 2; J415DIVH2 + J415DIVK5
fold less binding than the chimeric J415 antibody [3]: 2 fold

B5: murine monoclonal antibody J415 (hybridoma ATCC HB-12109) (antibody, mouse IgG1, V domains shown)
VH: EVKLEESGGGLVQPGGSMKLSCVASGFTFSNYWMNWVRQSPEKGLEWVAEIRSQSNNFATHYAESVKGRVIISRDDSKSSVYLQMNNLRAEDTGIYYCTRRWNNFWGQGTTLTVSS
VL: NIVMTQFPKSMSISVGERVTLTCKASENVGTYVSWYQQKPEQSPKMLIYGASNRFTGVPDRFTGSGSATDFILTISSVQTEDLVDYYCGQSYTFPYTFGGGTKLEMK
notes: also called murine J415
binding result [1]: binds

B7: J415 chimeric antibody (murine variable heavy and light chain regions fused to human constant heavy and light chain regions) (antibody, V domains shown)
VH: EVKLEESGGGLVQPGGSMKLSCVASGFTFSNYWMNWVRQSPEKGLEWVAEIRSQSNNFATHYAESVKGRVIISRDDSKSSVYLQMNNLRAEDTGIYYCTRRWNNFWGQGTTLTVSS
VL: NIVMTQFPKSMSISVGERVTLTCKASENVGTYVSWYQQKPEQSPKMLIYGASNRFTGVPDRFTGSGSATDFILTISSVQTEDLVDYYCGQSYTFPYTFGGGTKLEMK
notes: also called the chimeric
binding result [2]: binds

Further lines, results first:

binding result [1]: binds
B1: murine monoclonal antibody E99 (hybridoma ATCC HB-12101) (antibody, mouse IgG3, V domains shown)
VH: QVQLKESGPGLVASSQSLSITCTVSGFSLTAYGINWVRQPPGKGLEWLGVIWPDGNTDYNSTLKSRLNIFKDNSKNQVFLKMSSFQTDDTARYFCARDSYGNFKRGWFDFWGQGTTLTVSS
VL: NIVMTQSQKFMSTSPGDRVRVTCKASQNVGSDVAWYQAKPGQSPRILIYSTSYRYSGVPDRFTAYGSGTDFTLTITNVQSEDLTEYFCQQYNSYPLTFGAGTKLELK
notes: also called murine E99

fold less binding than the chimeric J415 antibody [3]: 2 fold
B6: deimmunized J415 antibody composed of heavy chain version 1 (J415DIVH1) and light chain version 5 (J415DIVK5) (antibody, V domains shown)
VH: EVKLEESGGGLVQPGGSMKISCKASGFTFSNYWMNWVRQTPEKGLEWVALIRSQSNNFATHYAESVKGRVIISRDDSKSSVYLQMNSLRAEDTAVYYCTRRWNNFWGQGTTVTVSS
VL: NIVMTQFPKSMSASAGERMTLTCKASENVGTYVSWYQQKPTQSPKMLIYGASNRFTGVPDRFSGSGSGTDFILTISSVQAEDLVDYYCGQSYTFPYTFGGGTKLEMK
notes: also called DIVK5 combined with heavy chain version 1; J415DIVH1 + J415DIVK5
